This note sets out measurements from patent US20250282852A1 (SINOMAB BIOSCIENCE, published 2025).

Assay [1] concerns the target T1, human CD22 protein (Sino Biological) (human).
T1 construct: Bought protein coated on ELISA strips
In words: ELISA on coated human CD22 protein, anti-human Fc HRP detection. How it is done:
The binding of the different bispecific antibodies to their respective antigens is tested with standard ELISA method known to those skilled in the art. Using SM03-Adu as an example, 2 μg/mL of human CD22 protein (Sino Biological) or 5 μg/mL of Aβ oligomer are coated separately onto ELISA stripes (Santa Cruz) overnight at 4° C. or 1 hour at room temperature, respectively. ELISA stripes are blocked with 1% BSA in PBS. Stripes are washed 2 times with PBS. Bispecific antibodies are added in the following concentration, e.g. 10 μg/mL, 2 μg/mL, 0.4 μg/mL, 0.08 μg/mL, 0.016 μg/mL, 0.0032 μg/mL, 0.00064 μg/mL and incubated for 1 hour at room temperature. Stripes are washed 3 times with PBS. Stripes are incubated with anti-human Fc HRP-conjugated antibody diluted 1:6000 in PBS for 1 hour at room temperature. Fifty μL TMB (Invitrogem) is then added. After 30 minutes incubation at room temperature, 50 μL stop solution (2N H2SO4) is added to stop the reaction. Coloration are read by plate reader.
(In general: ELISA stands for enzyme-linked immunosorbent assay.)

In another assay the target is T2, CD33 on HMC-3 cells (human, UniProt P20138 18-364).
T2 construct: Native antigen on HMC-3
Description: flow cytometry on fixed HMC-3 cells, 10 µg/mL, anti-human Fc Alexa Fluor 488; graded + (weakest) to +++++ (highest). How it is done:
The binding of different bispecific antibodies to HMC-3 cells is evaluated. Briefly, HMC-3 cells are seeded onto 6 well plate at a density of […]. After plating and culture for overnight, cells are detached with TrypLE™ Express enzyme. Cells are centrifuged at 300 g for 5 minutes. Cell pellets are washed once with phosphate buffer saline (pH7.4). Cells are fixed with 4% PFA in PBS for 5 minutes at room temperature. Cells are washed once with PBS. Bispecifc antibodies at a concentration of10 μg/mL are incubated with HMC-3 for 1 hour at room temperature. Cells are then washed twice with PBS. Cells are incubated with anti-human Fc Alexafluor 488-conjugated antibody diluted 1:1000 in PBS for 1 hour at room temperature. Cells are washed twice with PBS. Cell are centrifuged at 300 g for 5 minutes. Cell pellet is resuspended with 1% BSA in PBS and proceed to flow cytometry. FIG. 5 illustrates a representative result of HMC-3 cell binding by SM03-Adu.
(In general: In flow cytometry, cells or beads pass a laser one at a time.)

T2 sequence (P20138 18-364 limits assumed): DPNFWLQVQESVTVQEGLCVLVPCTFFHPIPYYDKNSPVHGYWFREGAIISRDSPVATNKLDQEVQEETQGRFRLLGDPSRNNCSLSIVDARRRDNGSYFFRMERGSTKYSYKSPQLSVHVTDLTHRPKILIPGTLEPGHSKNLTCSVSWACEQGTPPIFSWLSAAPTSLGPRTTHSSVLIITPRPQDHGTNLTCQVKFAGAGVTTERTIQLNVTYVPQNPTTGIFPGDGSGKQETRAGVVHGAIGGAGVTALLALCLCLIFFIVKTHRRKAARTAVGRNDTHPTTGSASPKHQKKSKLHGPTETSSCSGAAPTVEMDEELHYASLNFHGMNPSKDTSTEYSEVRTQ

B1: SM06-Adu (bispecific antibody)
heavy: not shown
light: DIQLTQSPSSLSASVGDRVTISCRASQDISNYLNWYQQKPGKAPKLLIYYTSILHSGVPSRFSGSGSGTEFTLTISSLQPEDFATYFCQQGNTLPWTFGGGTKVEIKRTVAAPSVFIFPPSDEQLKSGTASVVCLLNNFYPREAKVQWKVDNALQSGNSQESVTEQDSKDSTYSLSSTLTLSKADYEKHKVYACEVTHQGLSSPVTKSFNRGEC
As for B1, the “EC50 (read off the curve)” value in assay [1] is approximately 0.1 µg/mL.

B2: Lin-Adu (bispecific antibody)
heavy: not shown
light: DIQMTQSPSSLSASVGDRVTITCRASESVDNYGISFMNWFQQKPGKAPKLLIYAASNQGSGVPSRFSGSGSGTDFTLTISSLQPDDFATYYCQQSKEVPWTFGQGTKVEIKRTVAAPSVFIFPPSDEQLKSGTASVVCLLNNFYPREAKVQWKVDNALQSGNSQESVTEQDSKDSTYSLSSTLTLSKADYEKHKVYACEVTHQGLSSPVTKSFNRGEC
For B2, the binding result with CD33 on HMC-3 cells was “binds”.

Usually EC50 (read off the curve) stands for the concentration giving half of the maximal effect. The low end stands for a more potent agent, the high end for a less potent agent.
